# B1: Ab159 (antibody, V domains shown)
# VH: QVQLVESGGGLVKPGGSLRLSCAASGFTFNNAWMSWVRQAPGKGLEWVGRIKSKTDGGTTDYAAPVKGRFTFSRDDSKNTLYLQMSSLKTEDTALYYCTTADYDILTGTPASPYWGQGTLVTVSS
# VL: DIQMTQSPSSLSASVGDRVTITCRASQSITNYLNWYQQKPGKAPKFLIYAASSLQGGVPSRFRGSGSGTDFTLTISSLQPEDFATYYCQQTYSTLWTFGQGTKVEIK
# B2: Ab847 (antibody, V domains shown)
# VH: EVQLVQSGAEVKKPGASVKVSCKASGYTFTSYDIIWVRQATGQGLEWMGWMDPSRGTTGYAQTFQGRVTMTRDTSISTAYLELNSLTSEDTAVYYCVAHIVVLDRWFDPWGQGTLVTVSS
# VL: DIVMTQSPSSLSASVGDRVTITCQASQDIGNFLNWCQQKPGQAPKVLIYGASNLETGVPSRFSGSGSGTDFTFTISSLQPEDIATYYCQHYDNFPPRFTFGQGTKLDIK
# B3: Ab354 (antibody, V domains shown)
# VH: QVQLVQSGAEVKKPGASVTVSCKASGFLFTGYYMHWVRQAPGQGLEWMGWINPNSGASNYTRKFQGRVTMTRDTSISATYMKLSRLTSDDTAVYYCARDLAFSMVRGALDYWGQGTLVTVSS
# VL: QLVLTQPPSASGSPGQSVTISCTGTSSDVGGYNYVSWYQHHPGKAPKLMIYEVSKRPSGVPDRFSGSKSGNTASLTVSGLQAEDEADYYCNSYAGNNNWVFGTGTKVTVL
# B4: Ab326 (antibody, V domains shown)
# VH: EVQLVESGGGVVQPGRSLRLSCAASGFTFSHYPMHWVRQAPGRGLEWVAVISYDGSNQHYVDSVKGRFTISRDNSKNTLYLQMNSLRAEDTAVYFCASLITMIRGVPDYWGQGTLVTVSS
# VL: DIQMTQSPSSLSASVGDRVTITCRASQSISNYLNWYQQKPGKAPNLLIFAASSLQSGVPSRFSGSGSGTEFTLTISSLQPEDFAAYYCLQTYSTPRTFGQGTRLEIK
# B5: Ab712 (antibody, V domains shown)
# VH: QVQLVQSGSELKKPGASVKISCKASGYTFINHAINWVRQAPGQGLEWMGWINTNTGNPTYAPGFTGRFVFSLDTSVSTAYLQISSLKAEDTAVYYCARIPIRDYDYDGSGYYYFLDYWGQGTLVTVSS
# VL: SYELTQDPAVSVALGQTVRITCQGDSLRSSSASWYQQKPGQAPVLVIYGKTNRPSGIPDRFSGSSSGNTASLTITGAQAEDEADYYCNSRDNSGNHPVVFGGGTKLTVL
# B6: Ab864 (antibody, V domains shown)
# VH: EVQLVESGGGLVQPGRSLRLSCAASGFTFDDYAMHWVRQVPGKGLEWVSGISWNKGNIDYADSVKGRFTISRDNAKNSLYLQMNSLRPEDTGLYYCAKDCHYDSPGYFPNCLHSWGQGTLVTVSS
# VL: EIVMTQSPSSLSASVGDRVTITCRASQGINTYLAWYQQKPGKAPKLLIYTASTLQSGVPSRFSGSGSGTDFTLTISSLQPEDFATYYCQQVHSYPLTFGGGTKVEIK
# B7: Ab830 (antibody, V domains shown)
# VH: QVQLVQSGAEVKKPGSSVKVSCKTSGGTFTNYTISWVRQAPGQGLEWMGRIIPIFDIVNYAQKFQGRVTITADKSTSTTYMELSSLRSEDTAVYYCARDGVLYDTSGYLYDAFDIWGQGTMVTVSS
# VL: DIQMTQSPSSLSASVGDRVTITCRASQGINNYLAWFQQKPGKAPKSLIYAASSLQSGVPPKFSGSGSGTDFTLTISSLQPEDFATYYCLHYNSYPWTFGQGTKVEIK
# B8: Ab496 (antibody, V domains shown)
# VH: EVQLVQSGPEVKKPGTSVKVSCKASGFIFTNSAVQWVRQARGQRLEWIGWIVVGSGNPNYAQKFQERVTITRDRSTSTAYMELSSLTSEDTAVYYCAAFPYYYDNSGSGPWGQGTLVTVSS
# VL: DIQLTQSPSSLSASVGDRVTITCQASQDIRNNLNWYQQIPGKAPKLLIYDASNLETGVPSRFSGSASGTDFTFTISSLQPEDVATYYCQQYANLPPFTFGPGTKVDIK
# B9: Ab816 (antibody, V domains shown)
# VH: QVQLVQSGAEVKKPGESLMISCKASGYNFRNYWIAWVRQMPGKGLEWMGIIHPGDSDIRYRPSLQGHVTISADKSITTAYLQWGSLKASDTAMYYCTRITTDADSSGLFHYWGQGTLVTVSS
# VL: EIVLTQSPSTLSASVGDRVTITCRASQNIYTWLAWYQRKPGKAPKVLIYKASSLESGVPSRFSGSGSGTEFTLTISSLQPDDFATYYCQQYKSAWSFGQGTKVEIK
# B10: Ab709TK (antibody, V domains shown)
# VH: QVQLVESGGGVVQPGKSLRLSCAASGFTFSSYAMHWVRLAPGKGLEWVAVISPDGKNKYYVDSVKGRSTISRDNSKNTLYLLMNSLRAEDTAVYYCATTQSLWFGQFYYIYGMDVWGQGTTVTVSS
# VL: QSVLTQPHSVSESPGKTITISCTGSSGSIASNYVQWYQQRPGSAPTTVIYEDTERPSGVPDRFSGSIDSSSNSASLTISGLKTEDEADYYCQSYDSNNVVFGGGTKLTVL
# B11: Ab863 (antibody, V domains shown)
# VH: EVQLVQSGAEVKKPGASVKVSCQASGYTFITYYMHWVRQAPGQGLEWMGIINPDGGSISYAQKFQGRVTMTRDTSTSTVYMELSSLRSEDTAVYYCARGLSPTFSSSWFDNWGLGTLVTVSS
# VL: DVVMTQSPATLSVSPGERATLSCRASQSVSSNLAWYQQKPGQAPRLLIYGASTRDTGIPARFSGSGSGTEFTLTISSLQSEDFAVYFCQQYKNWLLTFGGGTKVEIK
# B12: Ab765 (antibody, V domains shown)
# VH: QVQLVESGGGVVQPGRSLRLSCAASGFTFSDYAIHWVRQAPGRGLEPVALISYDGNNKYYADSVKGRFTISRDNSKNVLYLQMNSLRADDTAVYYCARDAEGGWVAALDYWGQGTLVTVSS
# VL: QSALTQPRSVSGSPGQSVTISCTGTSSDVGGYNYVSWYQHHPGKAPKVMIYEVSKRPSGVPDRFSGSKSGTTASLTISGLQAEDEADYYCCSYAGTYPYVFGTGTKVTVL
# B13: Ab803 (antibody, V domains shown)
# VH: EVQLVESGGGLVQPGRSLRVSCAASGFTFDDYAMHWVRQTPRKGLEWVAGISRNSAAIAYADSVKGRFTISRDNAKNSVFLQMNGLRADDTALYYCVKSPRYGWGSPDYSFDFWGRGTLVTVSS
# VL: DIQLTQSPSSLSASVGDRVTITCRASQNIGTYLNWYQQEPGKAPKLLIYAASSLQSGVPSRFSGSGSGTDFTLTISSLQPEDFATYCCQQSFTTPLTFGQGTKVEIK
# B14: Ab188 (antibody, V domains shown)
# VH: EVQLVESGGGLVQPGGSLRLSCAASGFTFINYKMNWVRQAPGKGLEWVSYISSGSDAIYYADSVKGRFTISRDNAKNSLYLQMNSLRDEDTALYYCARGGGYNYGECMDVWGQGTTVTVSS
# VL: not shown
# Biological target: spike protein of SARS-CoV-2 α strain on pseudovirus (SARS-CoV-2 (α strain))
# Assay: cell-based or functional assay
row,Binder,IC50 of pseudovirus infection (luciferase)
1,B1,11.9 ng/mL
2,B2,82.1 ng/mL
3,B3,93.7 ng/mL
4,B4,49.3 ng/mL
5,B5,103 ng/mL
6,B6,9.8 ng/mL
7,B7,37.4 ng/mL
8,B8,16.9 ng/mL
9,B9,17.5 ng/mL
10,B10,236 ng/mL
11,B11,30.1 ng/mL
12,B12,16.6 ng/mL
13,B13,402 ng/mL
14,B14,248 ng/mL

# Biological target: spike protein of SARS-CoV-2 β strain on pseudovirus (SARS-CoV-2 (β strain))
# Assay: cell-based or functional assay
row,Binder,IC50 of pseudovirus infection (luciferase)
1,B1,5.37 ng/mL
2,B2,10.3 ng/mL
3,B5,7.7 ng/mL
4,B6,4.4 ng/mL
5,B7,56.9 ng/mL
6,B9,9.5 ng/mL
7,B10,5.8 ng/mL
8,B12,4.5 ng/mL
9,B13,10.4 ng/mL
10,B14,17.9 ng/mL

# Biological target: spike protein of SARS-CoV-2 γ strain on pseudovirus (SARS-CoV-2 (γ strain))
# Assay: cell-based or functional assay
row,Binder,IC50 of pseudovirus infection (luciferase)
1,B1,3.69 ng/mL
2,B2,50.2 ng/mL
3,B5,2.2 ng/mL
4,B7,1.1 ng/mL
5,B9,1.8 ng/mL
6,B10,3.3 ng/mL
7,B12,14.4 ng/mL
8,B13,10.6 ng/mL

# Biological target: spike protein of SARS-CoV-2 δ strain on pseudovirus (SARS-CoV-2 (δ strain))
# Assay: cell-based or functional assay
row,Binder,IC50 of pseudovirus infection (luciferase)
1,B1,130 ng/mL
2,B2,42.2 ng/mL
3,B3,71.5 ng/mL
4,B4,18.4 ng/mL
5,B5,79.9 ng/mL
6,B6,17.2 ng/mL
7,B7,55.4 ng/mL
8,B8,9.84 ng/mL
9,B9,23.9 ng/mL
10,B10,58.6 ng/mL
11,B12,26.9 ng/mL
12,B13,63.9 ng/mL
13,B14,139 ng/mL

# Biological target: spike protein of SARS-CoV-2 B.1.1.482 strain on pseudovirus (SARS-CoV-2 (B.1.1.482 strain))
# Assay: cell-based or functional assay
row,Binder,IC50 of pseudovirus infection (luciferase)
1,B1,23.3 ng/mL
2,B2,54.8 ng/mL
3,B3,277 ng/mL
4,B5,16.4 ng/mL
5,B6,23.4 ng/mL
6,B7,4.2 ng/mL
7,B8,50.6 ng/mL
8,B9,39.6 ng/mL
9,B10,172 ng/mL
10,B12,11.7 ng/mL
11,B13,144 ng/mL
12,B14,171 ng/mL

# — patent publication US20230348573A1 (KEIO UNIVERSITY, published 2023)
